Test results from paper PMC8595387 (Scientific Reports, 2021).

B1: humanized A10 antibody A10/8A7 (antibody, V domains shown)
VH: QIHLVESGGGVVQTGKSMKISCKASGYSFTGYTMHWVKQTPGKNLEWIGLINPYNGGTGYNQKFKGKATLTVDKSSSTTYIELLSLTSEDSAVYYCARTSGYLFAYWGQGTLVTVSS
VL: ETVMTQSPATLSVSPGERATITCKASEDIYNRLAWYQQKPGQAPRLLISGATSLETGVPSRFSGSGSGTEFTLTISSLQSEDVATYYCQQYWSSPLTFGAGTKLEIK
B2: humanized A10 antibody A10/16E8 (antibody, V domains shown)
VH: QVQLVQSGGQVKKPGASVKISCKASGYSFTGYTMHWVKQAPGRGLEWIGLINPYNGGTGYNQKFKGKATLTVDKSSSTTYIELLSLTSEDSAVYYCARTSGYLFAYWGQGTLVTVSS
VL: DIVLTQTPDSLAVSLGERATITCKASEDIYNRLAWYQQKAGQPPKLLISGATSLETGVPDRFSGSGSGTDFTLTISSLQAEDVATYYCQQYWSSPLTFGAGTKVNIK
notes: VH of A10/16E8 (CDRs and flanking FR residues of mA10 grafted onto the human framework 16E8); VL of A10/16E8 (CDRs and flanking FR residues of mA10 grafted onto the human framework 16E8); also called A10/16A8 (as printed once in the discussion); source: Expi293F, transiently transfected, purified (protein G)
B3: mouse anti-ADAMTS13 antibody clone A10 (antibody, V domains shown)
VH: EVQLQQSGPELVKPGTSMKISCKASGYSFTGYTMHWVKQSHGKNLEWIGLINPYNGGTGYNQKFKGKATLTVDKSSSTTYIELLSLTSEDSAVYYCARTSGYLFAYWGQGTLVTVSA
VL: DIQMTQSSSSFSVSLGDRVTITCKASEDIYNRLAWYQQKPGNAPRLLISGATSLETGVPSRFSGSGSGKDYIFSITSLQTEDVATYYCQQYWSSPLTFGAGTKLELK
notes: VH of mA10; mouse heavy chain constant region cloned from the mA10 hybridoma; VL of mA10; mouse light chain constant region cloned from the mA10 hybridoma; Whole mouse IgG; mouse IgG2b served as the negative control, which may hint at IgG2b (surmise); also called mA10; mouse A10; source: Expi293F, transiently transfected, purified (protein G)
B4: human-mouse chimeric A10 (antibody, V domains shown)
VH: B3 VH
VL: B3 VL

These binders were tested against T1, Recombinant Human ADAMTS13 (Full Length) Protein (Homo sapiens, UniProt Q76LX8) (assay: cell-based or functional assay). Details: not given.
T1 sequence (Q76LX8 75-1427): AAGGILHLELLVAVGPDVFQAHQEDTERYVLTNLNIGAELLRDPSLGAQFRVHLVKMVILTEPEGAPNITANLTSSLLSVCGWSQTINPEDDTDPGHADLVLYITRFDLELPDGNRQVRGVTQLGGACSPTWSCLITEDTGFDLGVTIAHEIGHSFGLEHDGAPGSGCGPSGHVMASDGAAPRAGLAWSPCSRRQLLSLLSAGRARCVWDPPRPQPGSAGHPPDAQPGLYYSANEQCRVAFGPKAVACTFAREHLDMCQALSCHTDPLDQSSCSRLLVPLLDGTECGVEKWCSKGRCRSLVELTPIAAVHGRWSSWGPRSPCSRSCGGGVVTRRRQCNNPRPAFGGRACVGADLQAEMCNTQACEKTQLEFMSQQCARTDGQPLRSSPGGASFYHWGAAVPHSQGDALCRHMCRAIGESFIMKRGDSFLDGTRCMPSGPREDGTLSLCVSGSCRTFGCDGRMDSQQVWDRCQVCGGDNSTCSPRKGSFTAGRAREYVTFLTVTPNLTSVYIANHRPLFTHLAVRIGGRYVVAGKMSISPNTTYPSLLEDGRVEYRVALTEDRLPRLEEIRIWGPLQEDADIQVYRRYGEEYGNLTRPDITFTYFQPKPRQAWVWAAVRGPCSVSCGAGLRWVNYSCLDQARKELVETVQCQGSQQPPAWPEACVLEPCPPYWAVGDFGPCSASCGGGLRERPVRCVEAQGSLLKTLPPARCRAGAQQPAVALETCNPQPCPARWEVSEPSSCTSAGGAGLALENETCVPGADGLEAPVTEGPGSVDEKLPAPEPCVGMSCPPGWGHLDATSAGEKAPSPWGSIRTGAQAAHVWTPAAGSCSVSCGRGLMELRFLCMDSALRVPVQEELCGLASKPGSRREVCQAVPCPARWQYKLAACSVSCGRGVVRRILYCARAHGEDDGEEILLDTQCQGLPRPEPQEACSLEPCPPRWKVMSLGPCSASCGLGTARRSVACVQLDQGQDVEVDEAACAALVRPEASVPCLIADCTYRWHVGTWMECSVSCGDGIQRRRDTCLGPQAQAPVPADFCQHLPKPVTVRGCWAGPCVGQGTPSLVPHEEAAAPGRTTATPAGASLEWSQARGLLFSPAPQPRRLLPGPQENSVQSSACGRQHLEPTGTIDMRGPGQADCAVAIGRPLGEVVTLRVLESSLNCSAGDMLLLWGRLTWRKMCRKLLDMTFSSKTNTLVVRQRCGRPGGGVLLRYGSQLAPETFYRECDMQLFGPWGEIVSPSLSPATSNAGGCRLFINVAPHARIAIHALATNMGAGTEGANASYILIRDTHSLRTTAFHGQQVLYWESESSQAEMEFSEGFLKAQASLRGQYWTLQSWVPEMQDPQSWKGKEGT

Going from B1 to B2, the “IC50 of inhibition of plasma ADAMTS13 activity on VWF cleavage (chromogenic ELISA, normal pooled plasma, antibody 25 to 0.20 ug/mL)” value falls from 7.3 µg/mL to 0.9 µg/mL (8.1-fold).

B3 and B4 are within 1.5-fold of each other in “IC50 of inhibition of plasma ADAMTS13 activity on VWF cleavage (chromogenic ELISA, normal pooled plasma, antibody 25 to 0.20 ug/mL)” value: 2.28 µg/mL for the first, 2.3 µg/mL for the second.

The binders below were run against T1, Recombinant Human ADAMTS13 (Full …) (assay: SPR; Biacore T200; antibodies captured at about 1,000 RU on anti-human or anti-mouse IgG (Fc) on a CM5 chip; ADAMTS13 injected at 80 nM to 0.625 nM in PBS with 0.05% Tween 20; 25 C; 30 uL/min; contact 240 s, dissociation 900 s; 1:1 binding model). Details: both partners purified.

First: B1
Second: B2
The Kd of the first is 4.1-fold higher: 20.8 nM for the first, 5.07 nM for the second.

Compared with B3, B4 is 2.1-fold lower in Kd: 5.99 nM for the first, 2.8 nM for the second.

First: B1
Second: B2
The koff of the first is 3.1-fold higher: 0.000193 s⁻¹ for the first, 6.3e-05 s⁻¹ for the second.

First: B3
Second: B4
The koff of the first is 18-fold higher: 0.000362 s⁻¹ for the first, 2.03e-05 s⁻¹ for the second.

B1 and B2 are within 1.5-fold of each other in kon: 9270 M⁻¹ s⁻¹ for the first, 12400 M⁻¹ s⁻¹ for the second.

First: B3
Second: B4
The kon of the first is 8.3-fold higher: 60400 M⁻¹ s⁻¹ for the first, 7270 M⁻¹ s⁻¹ for the second.
